The experiment has as its target pyruvate kinase M2 (mouse (endogenous in kidney tissue)) (UniProt P52480). Nature of the experiment: cross-linking; mouse kidney tissue incubated in 250 uM disuccinimidyl suberate (DSS) for 30 min at room temperature, 8% SDS-PAGE, Western blot for PKM2; control mice, HFD-STZ-induced DN mice, and mice given acrolein scavengers (NAC, hydralazine, carnosine). (In general: Immunoblotting shows a protein as a band on a membrane.)

Where “and” joins values, the source holds several entries; their conditions need not be identical. Equal entries are not always repeated.

pyruvate kinase M2, P52480 1-531 (enzyme), sequence (P52480 whole entry): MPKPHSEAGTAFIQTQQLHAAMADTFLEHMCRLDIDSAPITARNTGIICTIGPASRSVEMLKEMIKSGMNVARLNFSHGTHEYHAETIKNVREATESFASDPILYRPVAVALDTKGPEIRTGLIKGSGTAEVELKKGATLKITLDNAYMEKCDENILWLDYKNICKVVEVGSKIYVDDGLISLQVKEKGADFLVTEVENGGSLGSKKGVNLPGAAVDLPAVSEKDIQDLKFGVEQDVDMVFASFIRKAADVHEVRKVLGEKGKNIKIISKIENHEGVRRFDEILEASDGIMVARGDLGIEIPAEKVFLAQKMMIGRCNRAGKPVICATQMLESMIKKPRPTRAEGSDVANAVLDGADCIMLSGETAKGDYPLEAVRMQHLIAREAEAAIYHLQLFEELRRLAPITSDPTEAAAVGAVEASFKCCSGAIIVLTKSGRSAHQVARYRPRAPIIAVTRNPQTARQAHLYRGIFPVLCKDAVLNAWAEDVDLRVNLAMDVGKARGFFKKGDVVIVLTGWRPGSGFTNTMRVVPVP

As for “pyruvate kinase M2, P52480 1-531 (enzyme)”, the stoichiometry N (commonly a count of units in the complex or per binding partner) is 2 and 4.
